Biological target: human PD-L1 expressed on mammalian cells (human) (UniProt Q9NZQ7)
Assay: FACS on PDL1-Raji cells by the text; sheet title 'Cell-Based Binding Raji-PDL1 cells', y axis labelled IL2 (ng/ml); EC50 table under the plot, unit taken from the axis Concentration (nM)

Chain of human PD-L1 expressed on mammalian cells (human) (Q9NZQ7 19-290): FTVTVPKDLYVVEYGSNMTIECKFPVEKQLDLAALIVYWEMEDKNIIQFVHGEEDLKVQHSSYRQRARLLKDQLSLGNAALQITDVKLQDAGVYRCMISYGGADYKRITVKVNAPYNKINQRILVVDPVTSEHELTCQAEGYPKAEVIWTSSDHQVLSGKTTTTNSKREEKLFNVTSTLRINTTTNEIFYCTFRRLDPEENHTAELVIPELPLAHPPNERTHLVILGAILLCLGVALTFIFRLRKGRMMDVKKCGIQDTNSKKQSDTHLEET

EC50: 890 pM
Substance: Tecentriq (atezolizumab) (antibody)
